Target: CapGH3b (Alloprevotella sp. MAG60)
Assay: SEC-MALS

stoichiometry N: 2
Substance: CapGH3b (enzyme)
